Results taken from article PMC5154250 (Biochemistry, 2016).

Columns and labels:
[1] = target: Drosophila melanogaster photoreceptor retinol dehydrogenase (PDH) isoform C (Drosophila melanogaster); test: crystal structure
[2] = target: T1, PDH (photoreceptor retinol dehydrogenase, isoform C; PDHc) (Drosophila melanogaster, UniProt B7Z062); test: differential scanning fluorimetry; type: binding
T1 sequence (B7Z062 2-261): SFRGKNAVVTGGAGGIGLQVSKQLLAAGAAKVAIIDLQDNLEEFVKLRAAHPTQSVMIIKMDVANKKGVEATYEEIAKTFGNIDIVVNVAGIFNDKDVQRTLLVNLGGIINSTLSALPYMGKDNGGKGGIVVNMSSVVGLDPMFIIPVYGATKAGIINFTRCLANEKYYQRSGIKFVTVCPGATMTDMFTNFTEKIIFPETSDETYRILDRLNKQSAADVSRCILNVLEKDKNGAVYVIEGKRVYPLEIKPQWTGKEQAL

| Compound | stoichiometry N [1] | Kd [2] [µM] |
| --- | --- | --- |
| Drosophila melanogaster photoreceptor retinol dehydrogenase (PDH) isoform C (enzyme) | 2 |  |
| NC(=O)c1ccc[n+]([C@@H]2O[C@H](COP(=O)([O-])OP(=O)(O)OC[C@H]3O[C@@H](n4cnc5c(N)ncnc54)[C@H](O)[C@@H]3O)[C@@H](O)[C@H]2O)c1 [NAD^+] |  | 170 ± 30 |
